Assay results: patent US20200405868A1, “GEL-FORMING POLYPEPTIDES” (priority 2018, published 2020)
The star is where a group is joined. Palmitoyl = CCCCCCCCCCCCCCCC(=O)*

Experiments:
[1] = target: FITC-labled GnRH molecule (a peptide) (UniProt P01148); test: Centricon filter release assay: FITC-GnRH that passed into the lower chamber with carrier at 1 mg/100 ml (control without carrier 72.50)
[2] = target: FITC-labled GnRH molecule (a peptide) (UniProt P01148); test: Centricon filter release assay: FITC-GnRH that passed into the lower chamber with carrier at 1 mg/10 ml (control without carrier 72.50); a lower reading means more retention with the carrier

Fluorescent Reading (average of duplicates) [1]: 58.4
Fluorescent Reading (average of duplicates) [2]: 9
B1: SEQ ID NO:119, Pal-SSPHSY-NH2, gel-forming peptide (peptide)
peptide: Palmitoyl-SSPHSY-NH2
SMILES: CCCCCCCCCCCCCCCC(=O)N[C@@H](CO)C(=O)N[C@@H](CO)C(=O)N1CCC[C@H]1C(=O)N[C@@H](Cc1c[nH]cn1)C(=O)N[C@@H](CO)C(=O)N[C@@H](Cc1ccc(O)cc1)C(N)=O
